B1: Cytochrome P450 1B1 (Homo sapiens), Q16678 (parent)
chain: MGTSLSPNDPWPLNPLSIQQTTLLLLLSVLATVHVGQRLLRQRRRQLRSAPPGPFAWPLIGNAAAVGQAAHLSFARLARRYGDVFQIRLGSCPIVVLNGERAIHQALVQQGSAFADRPAFASFRVVSGGRSMAFGHYSEHWKVQRRAAHSMMRNFFTRQPRSRQVLEGHVLSEARELVALLVRGSADGAFLDPRPLTVVAVANVMSAVCFGCRYSHDDPEFRELLSHNEEFGRTVGAGSLVDVMPWLQYFPNPVRTVFREFEQLNRNFSNFILDKFLRHCESLRPGAAPRDMMDAFILSAEKKAAGDSHGGGARLDLENVPATITDIFGASQDTLSTALQWLLLLFTRYPDVQTRVQAELDQVVGRDRLPCMGDQPNLPYVLAFLYEAMRFSSFVPVTIPHATTANTSVLGYHIPKDTVVFVNQWSVNHDPLKWPNPENFDPARFLDKDGLINKDLTSRVMIFSVGKRRCIGEELSKMQLFLFISILAHQCDFRANPNEPAKMNFSYGLTIKPKSFKVNVTLRESMELLDSAVQNLQAKETCQ

Variants of: B1
Conditions: with tie2_human TEK

Row | Variant | effect of a mutation on the interaction
1 | MGTSLSPNDPWPLNPLSIQQTTLLLLLSVLATVHVGQRLLRQRRRQLRSAPPGPFAWPLIGNAAAVGQAAHLSFARLARRYGDVFQIRLGSCPIVVLNGERAIHQALVQQGSAFADRPAFASFRVVSGGRSMAFGHYSEHWKVQRRAAHSMMRNFFTRQPRSRQVLEGHVLSEARELVALLVRGSADGAFLDPRPLTVVAVANVMSAVCFGCRYSHDDPEFRELLSHNKEFGRTVGAGSLVDVMPWLQYFPNPVRTVFREFEQLNRNFSNFILDKFLRHCESLRPGAAPRDMMDAFILSAEKKAAGDSHGGGARLDLENVPATITDIFGASQDTLSTALQWLLLLFTRYPDVQTRVQAELDQVVGRDRLPCMGDQPNLPYVLAFLYEAMRFSSFVPVTIPHATTANTSVLGYHIPKDTVVFVNQWSVNHDPLKWPNPENFDPARFLDKDGLINKDLTSRVMIFSVGKRRCIGEELSKMQLFLFISILAHQCDFRANPNEPAKMNFSYGLTIKPKSFKVNVTLRESMELLDSAVQNLQAKETCQ [E229K] | disrupting interaction strength

Variants of: B1
Conditions: with tie2_human TEK
Remark: another data set of the same source

Row | Variant | effect of a mutation on the interaction
2 | MGTSLSPNDPWPLNPLSIQQTTLLLLLSVLATVHVGQRLLRQRRRQLRSAPPGPFAWPLIGNAAAVGQAAHLSFARLARRYGDVFQIRLGSCPIVVLNGERAIHQALVQQGSAFADRPAFASFRVVSGGRSMAFGHYSEHWKVQRRAAHSMMRNFFTRQPRSRQVLEGHVLSEARELVALLVRGSADGAFLDPRPLTVVAVANVMSAVCFGCRYSHDDPEFRELLSHNKEFGRTVGAGSLVDVMPWLQYFPNPVRTVFREFEQLNRNFSNFILDKFLRHCESLRPGAAPRDMMDAFILSAEKKAAGDSHGGGARLDLENVPATITDIFGASQDTLSTALQWLLLLFTRYPDVQTRVQAELDQVVGRDRLPCMGDQPNLPYVLAFLYEAMRFSSFVPVTIPHATTANTSVLGYHIPKDTVVFVNQWSVNHDPLKWPNPENFDPARFLDKDGLINKDLTSRVMIFSVGKRRCIGEELSKMQLFLFISILAHQCDFRANPNEPAKMNFSYGLTIKPKSFKVNVTLRESMELLDSAVQNLQAKETCQ [E229K] | with no effect

Variants of: B1
Conditions: with tie2_human TEK
Remark: another data set of the same source

Row | Variant | effect of a mutation on the interaction
3 | MGTSLSPNDPWPLNPLSIQQTTLLLLLSVLATVHVGQRLLRQRRRQLRSAPPGPFAWPLIGNAAAVGQAAHLSFARLARRYGDVFQIRLGSCPIVVLNGERAIHQALVQQGSAFPDRPAFASFRVVSGGRSMAFGHYSEHWKVQRRAAHSMMRNFFTRQPRSRQVLEGHVLSEARELVALLVRGSADGAFLDPRPLTVVAVANVMSAVCFGCRYSHDDPEFRELLSHNEEFGRTVGAGSLVDVMPWLQYFPNPVRTVFREFEQLNRNFSNFILDKFLRHCESLRPGAAPRDMMDAFILSAEKKAAGDSHGGGARLDLENVPATITDIFGASQDTLSTALQWLLLLFTRYPDVQTRVQAELDQVVGRDRLPCMGDQPNLPYVLAFLYEAMRFSSFVPVTIPHATTANTSVLGYHIPKDTVVFVNQWSVNHDPLKWPNPENFDPARFLDKDGLINKDLTSRVMIFSVGKRRCIGEELSKMQLFLFISILAHQCDFRANPNEPAKMNFSYGLTIKPKSFKVNVTLRESMELLDSAVQNLQAKETCQ [A115P] | disrupting interaction strength
4 | MGTSLSPNDPWPLNPLSIQQTTLLLLLSVLATVHVGQRLLRQRRRQLRSAPPGPFAWPLIGNAAAVGQAAHLSFARLARRYGDVFQIRLGSCPIVVLNGERAIHQALVQQGSAFADRPAFASFRVVSGGRSMAFGHYSEHWKVQRRAAHSMMRNFFTRQPRSRQVLEGHVLSEARELVALLVRGSADGAFLDPRPLTVVAVANVMSAVCFGCRYSHDDPEFRELLSHNEEFGRTVGAGSLVDVMPWLQYFPNPVRTVFREFEQLNRNFSNFILDKFLRHCESLRPGAAPRDMMDAFILSAEKKAAGDSHGGGARLDLENVPATITDIFGASQDTLSTALQWLLLLFTRYPDVQTRVQAELDQVVGRDHLPCMGDQPNLPYVLAFLYEAMRFSSFVPVTIPHATTANTSVLGYHIPKDTVVFVNQWSVNHDPLKWPNPENFDPARFLDKDGLINKDLTSRVMIFSVGKRRCIGEELSKMQLFLFISILAHQCDFRANPNEPAKMNFSYGLTIKPKSFKVNVTLRESMELLDSAVQNLQAKETCQ [R368H] | decreasing interaction strength

Source: IntAct's records for PubMed 28620713
